In patent publication US20080058278A1, “ATTENUATION OF HYPEROXIA-INDUCED CELL DEATH WITH MITOCHONDRIAL ALDEHYDE DEHYDROGENASE” (THE CHILDREN'S MERCY HOSPITAL, priority 2006, published 2008):

Legend:
mtALDH-A549 cells [1] = assay: Necrotic cell death, trypan blue exclusion assay; type: cell-based, human; conditions: for necrotic cell death (percentage of stained cells to total cells): mtALDH-A549 cells, 10 μM inhibitor pretreatment 30 minutes; for necrotic cell death, trypan blue exclusion: mtALDH overexpression (mtALDH-A549)
Text: (§1) Plasmid Construction and Transfection: For human mt ALDH plasmid construction, full-length human mtALDH cDNA without stop codon was amplified from a human lung cDNA library (Clontech, Mountain View Calif.) by RT-PCR using following primers, sense: […] (SEQ ID NO. 1), antisense: […] (SEQ ID NO. 2). The resulting human mtALDH cDNA was subcloned into the plasmid vector pcDNA3.1 (Invitrogen, Carlsbad, Calif.). The mtALDH sequence (SEQ ID NO. 3) was confirmed by direct nucleotide sequencing. mtALDH-pcDNA3 and empty pcDNA3.1 plasmids were transfected into A549 cells using LipofectAMINE (Invitrogen, Carlsbad, Calif.). The transfected cells were then selected by G418 sulfate at 500 μg/mL for ten days. A single clone was selected by limited dilution and mtALDH protein expression was confirmed by Western blotting with anti-V5 antibody (Invitrogen, Carlsbad, Calif.).
(§2) The cultured media were collected and saved.

Neo-A549 cells [2] = conditions: 10 μM inhibitor pretreatment 30 minutes, 48-hour hyperoxic exposure (95% O2, 5% CO2)
Method: Cell culture and Cell Treatment: A549 cells were purchased from American Type culture collection (ATCC, Manassas, Va.) and grown in Dulbecco's Modified Eagle Medium (DMEM) containing 10% fetal bovine serum, 50 μg/mL penicillin and 50 μg/mL streptomycin in 5% CO2 at 37° C. Normoxic exposure of the cells was conducted under room air and 5% CO2 in a humidified cell culture incubator at 37° C. Hyperoxic exposure of the cells was conducted in a humidified chamber (Billups and Rothenberg, Del Mar, Calif.) and the chamber was flushed with 95% O2, 5% CO2 (hyperoxia) at a flow rate of 10 liters per minute for 15 minutes prior to incubation at 37° c. In U0126 and LY294002 pretreatment experiments, cells were treated with or without 10 μM U0216 or LY294002 (two well-known inhibitors) for 30 minutes prior to normoxic or hyperoxic exposure.
The lactate dehydrogenase (LDH) assay kit was from Biovision (Mountain View, Calif.) and LDH activity was measured per manufacture's instruction. Briefly, cells were incubated in an incubator (5% CO2, 37° C.) for the appropriate time of treatment. The cultured media were collected and saved. […] The absorbance of all samples at 490 nm was measured using a microplate reader. The cytotoxicity was determined by the percentage of LDH activity in cultured medium over combined LDH activities of the cultured medium and cell lysate.

Neo-A549 cells [3] = assay: Necrotic cell death, trypan blue exclusion assay; type: cell-based, human; conditions: 10 μM inhibitor pretreatment 30 minutes
Text: as §2

mtALDH-A549 cells [4] = type: cell-based; conditions: 10 μM inhibitor pretreatment 30 minutes, 48-hour hyperoxic exposure (95% O2, 5% CO2)
Text: as §1, §2

mtALDH-A549 cells [5] = assay: Apoptotic cell death, Annexin V staining and flow cytometry; type: cell-based, human; conditions: mtALDH overexpression (mtALDH-A549), 48-hour hyperoxic treatment; Neo-A549 0.84%
Method: Analysis of Apoptotic Cells: The Apoptosis Detection kit was from R&D System (Minneapolis, Minn.). Treated cells were trypsinized and collected by centrifugation at 500×g for 5 minutes. Cells were washed with cold PBS once and resuspended in 100 uL binding buffer containing 10 mM HEPES pH 7.4, 150 mM NaCl, 5 mM KCl, 1 mM MgCl2 and 1.8 mM CaCl2. Cells were stained with Annexin V-FITC (0.05 μg per sample) for 15 minutes according to manufacturer's instructions. The stained cells were then subjected to flow cytometry analysis.

ERK = ERK phosphorylation, Western blotting; type: cell-based, human; conditions: 48-hour normoxic conditions, normalized by total ERK
Method: Western Blotting Analysis: Antibodies were purchased from Cell Signaling Technology (Beverly, Mass.) and they were used according to manufacturer's instructions. Cultured cells after treatment were washed with cold PBS three times, and the 300 μl of sample lysis buffer (62.5 mM Tris-HCl pH 6.8, 2% w/v SDS, 10% glycerol, 200 mM dithiothreitol, and protease cocktails) was added to each plate. Cell lysates were centrifuged at 12,000×g for 10 minutes. The supernatants were saved for analysis. Protein concentration was determined by bicinchoninic acid (BCA) protein assay kit (Sigma, St. Louis, Mo.). Samples containing 50 μg of protein in loading sample buffer were boiled for 5 minutes and loaded on 12% Tris-Glycine SDS-PAGE gels. Gels were run at 120 V for approximately two hours and transferred overnight at 20 V to nitrocellulose membranes. Membranes were incubated with the blocking buffer containing 5% non-fat mile in PBST (0.1% Tween-20 in PBS) for one hour, washed with PBST and incubated overnight with the primary antibody against either phosphorylated ERK or phosphorylated Akt (Ser473). […] Phosphorylated ERK and phosphorylated Akt protein band intensities on autoradiogram were analyzed with Image-Quant (Molecular Dynamics, Sunnyvale, Calif.) and normalized by nonphosphorylated ERK, nonphosphorylated Akt or β-actin in the same sample, respectively.

mtALDH-A549 cells [6] = assay: Intracellular and mitochondrial ROS levels by flow cytometry; type: cell-based, human
Method: Assessment of Intracellular and Mitochondrial ROS Levels: After normoxic or hyperoxic treatment, cultured cells were stained with 10 μM of 2′,7′-dicholordihydrofluorescein diacetate, succinimidyl ester (OxyBURST® Green H2DCFDA (2′,7′-dichlorodihydrofluorescin diacetate)), SE, Molecular Probe, Oreg.) for 10 minutes. The stained cells were washed three times with PBS and then trypsinized with 0.025% trypsin and 0.05% EDTA. The resuspended cells were subjected to fluorescent intensity measured by flow cytometry. For mitochondria-derived ROS measurement, cells were incubated with 10 μM dihydrorhodamaine 123 (Molecular Probe, OR) for 15 minutes. The stained cells were washed three times with PBS and then trypsinized with 0.25% trypsin, 0.05% EDTA. The resuspended cells were subjected to rhodamine 123 fluorescent intensity measurement by flow cytometry. Statistical Analysis: The results are expressed as the mean±SEM of data obtained from two or more experiments; or where appropriate, as mean±SD. Statistical analysis was performed using the student t test for paired comparisons and ANOVA for multiple comparisons. A value of p<0.05 was considered significant.

mtALDH = molecular target: T1, mtALDH (Homo sapiens, UniProt P05091); assay: mtALDH activity assay (NADH formation at 340 nm); type: cell-based; conditions: cell homogenate supernatant, p<0.01, n=6
T1 construct: endogenous in cells; host or cells: A549 human lung type II epithelial cells (isolated mitochondrial protein or cell homogenate supernatant)
T1 sequence (P05091 18-517): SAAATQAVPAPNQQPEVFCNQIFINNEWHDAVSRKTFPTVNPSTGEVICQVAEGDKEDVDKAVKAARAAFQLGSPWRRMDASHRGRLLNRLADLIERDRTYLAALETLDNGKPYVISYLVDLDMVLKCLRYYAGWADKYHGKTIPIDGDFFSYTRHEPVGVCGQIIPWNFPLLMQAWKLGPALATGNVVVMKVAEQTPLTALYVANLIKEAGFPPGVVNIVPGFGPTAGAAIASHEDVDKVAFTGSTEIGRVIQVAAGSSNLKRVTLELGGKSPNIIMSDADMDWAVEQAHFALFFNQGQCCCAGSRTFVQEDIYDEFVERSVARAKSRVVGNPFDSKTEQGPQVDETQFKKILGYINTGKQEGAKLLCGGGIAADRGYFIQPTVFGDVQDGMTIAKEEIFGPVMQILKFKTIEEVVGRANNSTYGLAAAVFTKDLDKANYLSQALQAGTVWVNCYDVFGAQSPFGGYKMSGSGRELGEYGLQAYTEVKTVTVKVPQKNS
Method: mtALDH Activity Assay: mtALDH activity was measured as described previously (9). Neo-A549 and mtALDH A549 cells cultured on plates were collected in buffer of 50 mM Tris-HCl, pH 8.5. Resuspended cells were sonicated at setting 4 for 5 seconds by VirSonic sonicator from VirTis (Gardiner, N.Y.). The cell homogenates were centrifuged at 12,000×g for 10 minutes. The supernatants were saved and protein concentration was determined. Mitochondria were isolated from cultured cells using a mitochondria isolation kit from Pierce (Rockford, Ill.). The enzyme activity assay was carried out in 100 μL of 50 mM Tris-HCl, pH 8.5 containing 50 μg prepared protein, 15 μM propionaldehyde, 1 mM NAD and 1 mM 4-methylpyrazole. The ALDH activity was determined by spectrometer for NADH formation at 340 nm.

Akt = Akt phosphorylation and total Akt, Western blotting; type: cell-based, human
Method: Western Blotting Analysis: Antibodies were purchased from Cell Signaling Technology (Beverly, Mass.) and they were used according to manufacturer's instructions. Cultured cells after treatment were washed with cold PBS three times, and the 300 μl of sample lysis buffer (62.5 mM Tris-HCl pH 6.8, 2% w/v SDS, 10% glycerol, 200 mM dithiothreitol, and protease cocktails) was added to each plate. Cell lysates were centrifuged at 12,000×g for 10 minutes. The supernatants were saved for analysis. Protein concentration was determined by bicinchoninic acid (BCA) protein assay kit (Sigma, St. Louis, Mo.). Samples containing 50 μg of protein in loading sample buffer were boiled for 5 minutes and loaded on 12% Tris-Glycine SDS-PAGE gels. Gels were run at 120 V for approximately two hours and transferred overnight at 20 V to nitrocellulose membranes. Membranes were incubated with the blocking buffer containing 5% non-fat mile in PBST (0.1% Tween-20 in PBS) for one hour, washed with PBST and incubated overnight with the primary antibody against either phosphorylated ERK or phosphorylated Akt (Ser473). The membranes were washed in PBST and proteins were visualized using horseradish peroxidase (HRP)-conjugated anti-rabbit IgG and the enhanced chemiluminescence (Amersham Bioscience, Piscataway, N.J.). The membranes were stripped using a standard stripping solution (62.5 mM Tris-HCl, pH 6.8, 2% SDS and 100 mM β-mercaptoethanol) at 50° C., and reprobed with nonphosphorylated ERK, nonphosphorylated Akt and β-actin antibodies. Phosphorylated ERK and phosphorylated Akt protein band intensities on autoradiogram were analyzed with Image-Quant (Molecular Dynamics, Sunnyvale, Calif.) and normalized by nonphosphorylated ERK, nonphosphorylated Akt or β-actin in the same sample, respectively.

[7] = 48-hour hyperoxic exposure (95% O2, 5% CO2)

Molecule | necrotic cell death (percentage of stained cells to total cells) (mtALDH-A549 cells [1]; [7]) [%] | necrotic cell death (percentage of stained cells to total cells) (mtALDH-A549 cells [1]; 48-hour normoxic exposure) [%] | necrotic cell death (LDH cytotoxicity) (Neo-A549 cells [2]) [%] | necrotic cell death (percentage of stained cells to total cells) (Neo-A549 cells [3]; [7]) [%] | necrotic cell death (percentage of stained cells to total cells) (Neo-A549 cells [3]; 48-hour normoxic exposure) [%] | necrotic cell death (LDH cytotoxicity) (mtALDH-A549 cells [4]) [%] | necrotic cell death, trypan blue exclusion (mtALDH-A549 cells [1]; 24-hour hyperoxic exposure, Neo-A549 25.3%) [%] | necrotic cell death, trypan blue exclusion (mtALDH-A549 cells [1]; 48-hour hyperoxic exposure, Neo-A549 50.5%) [%] | necrotic cell death, trypan blue exclusion (mtALDH-A549 cells [1]; 72-hour hyperoxic exposure, Neo-A549 52.4%) [%] | apoptotic cell death (Annexin V positive cells) (mtALDH-A549 cells [5]) [%] | ERK phosphorylation in mtALDH-A549 cells compared to Neo-A549 cells (ERK) | intracellular ROS level (H2DCFDA staining) (mtALDH-A549 cells [6]; 24-hour hyperoxia) | intracellular ROS level versus Neo-A549 cells (mtALDH-A549 cells [6]; 24-hour hyperoxia, p<0.001) | mitochondrial ROS level (dihydrorhodamine 123) versus Neo-A549 cells (mtALDH-A549 cells [6]; 24-hour hyperoxic exposure, p<0.001) | total mtALDH activity in mtALDH-A549 cells compared to Neo-A549 cells (mtALDH) | Akt phosphorylation in mtALDH-A549 cells versus Neo-A549 cells (Akt; 0, 24 and 48-hour hyperoxic exposure) | phosphorylated Akt level in mtALDH-A549 cells versus Neo-A549 cells (Akt; first 24-hour culture under normoxic conditions) | total Akt in mtALDH-A549 cells compared to Neo-A549 cells (Akt; prior to hyperoxic treatment (0 hour))
N#CC(=C(/N)Sc1ccccc1N)/C(C#N)=C(\N)Sc1ccccc1N [U0126] | 26.0 | 11.6 | 14.1 | 44.5 | 12.6 | 9.4 |  |  |  |  |  |  |  |  |  |  |  | 
O=c1cc(N2CCOCC2)oc2c(-c3ccccc3)cccc12 [LY294002] | 28.0 | 4.3 |  | 86.6 | 9.0 |  |  |  |  |  |  |  |  |  |  |  |  | 
mtALDH: human mitochondrial aldehyde dehydrogenase (SEQ ID NO. 3) overexpressed as V5 fusion protein in A549 cells by pcDNA3.1 plasmid transfection (protein, listed as Homo sapiens, V5 tag) MLRAAARFGPRLGRRLLSAAATQAVPAPNQQPEVFCNQIFINNEWHDAVSRKTFPTVNPSTGEVICQVAEGDKEDVDKAVKAARAAFQLGSPWRRMDASHRGRLLNRLADLIERDRTYLAALETLDNGKPYVISYLVDLDMVLKCLRYYAGWADKYHGKTIPIDGDFFSYTRHEPVGVCGQIIPWNFPLLMQAWKLGPALATGNVVVMKVAEQTPLTALYVANLIKEAGFPPGVVNIVPGFGPTAGAAIASHEDVDKVAFTGSTEIGRVIQVAAGSSNLKRVTLELGGKSPNIIMSDADMDWAVEQAHFALFFNQGQCCCAGSRTFVQEDIYDEFVERSVARAKSRVVGNPFDSKTEQGPQVDETQFKKILGYINTGKQEGAKLLCGGGIAADRGYFIQPTVFGDVQDGMTIAKEEIFGPVMQILKFKTIEEVVGRANNSTYGLAAAVFTKDLDKANYLSQALQAGTVWVNCYDVFGAQSPFGGYKMSGSGRELGEYGLQAYTEVKTVTVKVPQKNS |  |  |  |  |  |  | 6.5 | 9.1 | 15.1 | 0.48 | seven-fold increase | increased only approximately two fold | significantly decreased | significantly decreased | increased more than two fold | 2-3 times | two-fold higher | about 1.8 fold
